Assay results taken from the RNAGym collection of RNA variant scans (doi:10.7554/elife.80360).

B1: Hammerhead Ribozyme (parent)
chain: ACCGGAUGUGCUUUCCGGUCUGAUGAGUCCGUGAGGACGAAACAG

Variants of: B1
Assay: self-cleavage, relative activity (ratio to wild type); higher = more cleavage; co-transcriptional

**Q.** With ACCGGAUGUGCGUUCCGGUCUGAUGAGUCCGUGAGGACGUAACAG as the variant, how does the self-cleavage read?
**A.** Its self-cleavage is 0.376.

**Q.** With ACCGGAUGUGCUGUCCGGUCUGACGAGUCCGUGAGGACGAAACAG as the variant, how does the self-cleavage read?
**A.** Its self-cleavage is 0.83.

**Q.** With ACCGGAUAUGCUUUCCGGUCUGAUGAGUCCGUCAGGACGAAACAG as the variant, how does the self-cleavage read?
**A.** The self-cleavage was 0.949.

**Q.** With ACCGGAUGUGCUUUCCGGUCUGAUGGCUCCGUGAGGACGAAACAG as the variant, how does the self-cleavage read?
**A.** Its self-cleavage is 0.297.

**Q.** Which self-cleavage does the source give for AACGGAUGUGCAUUCCGGUCUGAUGAGUCCGUGAGGACGAAACAG here?
**A.** Its self-cleavage is 0.62.

**Q.** With ACCGGAUGUGCGUUCCGGUCUGAUGAGUCCGUGAGGACGAAACGG as the variant, how does the self-cleavage read?
**A.** The self-cleavage was 1.57.

**Q.** For ACCGGAGGUGCUUUCCGGUCUGAUUAGUCCGUGAGGACGAAACAG, which self-cleavage is on record?
**A.** The self-cleavage was 0.333.

**Q.** With ACCGGAUGUGCUUUCCGGUCUGAUGAGUCCGUGAGGACGUAACAA as the variant, how does the self-cleavage read?
**A.** Its self-cleavage is 0.343.

**Q.** Which self-cleavage does the source give for ACCGGAUGUGCUUUCUGGUCUGAUUAGUCCGUGAGGACGAAACAG here?
**A.** Its self-cleavage is 0.356.

**Q.** With ACCGGAUGUGCUUUCCGGACUGAUGAGUCCGUGAGUACGAAACAG as the variant, how does the self-cleavage read?
**A.** The self-cleavage was 0.302.

**Q.** With ACCGGUUGUGCUUUCCGGUCUGAGGAGUCCGUGAGGACGAAACAG as the variant, how does the self-cleavage read?
**A.** Its self-cleavage is 0.642.

**Q.** With ACCGGAUGUGCUUUCGGGUCUGAUGAGUUCGUGAGGACGAAACAG as the variant, how does the self-cleavage read?
**A.** The self-cleavage was 0.646.

**Q.** For ACCGUACGUGCUUUCCGGUCUGAUGAGUCCGUGAGGACGAAACAG, which self-cleavage is on record?
**A.** The self-cleavage was 0.716.

**Q.** For ACCGGAUCUGCUUUCCGGUCUGAUGAGUCCGUGAGGACGAAGCAG, which self-cleavage is on record?
**A.** The self-cleavage was 0.311.

**Q.** For ACCGGAUGUGCUUUCCGAUCUGAUGAUUCCGUGAGGACGAAACAG, which self-cleavage is on record?
**A.** The self-cleavage was 0.393.

**Q.** With ACCGGAUGUGCUUUCCGGUCUGAUGAGUCCGUGUGUACGAAACAG as the variant, how does the self-cleavage read?
**A.** The self-cleavage was 0.565.

**Q.** For AGCGGAUGUGCUUUCCGGUCUGAUGAGUCCGUGAGGACCAAACAG, which self-cleavage is on record?
**A.** The self-cleavage was 0.289.

**Q.** Which self-cleavage does the source give for ACCGGAUGUGGUUUCCGGUCUGAUGAGUCCGUGAGGACGAAAAAG here?
**A.** Its self-cleavage is 0.311.

**Q.** With ACCGGAUGUGCUUCCCGGUCUGAUGAGUCCGUGAGGACGUAACAG as the variant, how does the self-cleavage read?
**A.** Its self-cleavage is 0.354.

**Q.** Which self-cleavage does the source give for ACCGGAUGUGCUUUCCGGUCUGAUGAGUCCGUAAGGACUAAACAG here?
**A.** Its self-cleavage is 0.344.

**Q.** Which self-cleavage does the source give for ACCGGAUGUGCUUUCCUGUCUGAUGAGACCGUGAGGACGAAACAG here?
**A.** Its self-cleavage is 0.58.

**Q.** For GCCGGAUGUGCUUUCCGGUCUGUUGAGUCCGUGAGGACGAAACAG, which self-cleavage is on record?
**A.** Its self-cleavage is 0.424.

**Q.** For AUCGGAUGUGCUUUCCGGUCUCAUGAGUCCGUGAGGACGAAACAG, which self-cleavage is on record?
**A.** The self-cleavage was 0.323.

**Q.** With ACCGGAUGUGCUUUCCGGUCUGGUGAGUCCGUGAGGACGAAACAC as the variant, how does the self-cleavage read?
**A.** Its self-cleavage is 0.33.

**Q.** With ACCGGAUGUGCUUUCCGGCCUGAUGAGUCCGUGAGGACGAAACUG as the variant, how does the self-cleavage read?
**A.** The self-cleavage was 0.258.

**Q.** Which self-cleavage does the source give for ACCGGAUGUGCUUUCCGGUCUGAUGAGGCCGUGAGGCCGAAACAG here?
**A.** Its self-cleavage is 0.919.

**Q.** Which self-cleavage does the source give for ACCGGUUGUGCUUUCCGGUCUGAUGAGUCCGUGCGGACGAAACAG here?
**A.** The self-cleavage was 0.651.

**Q.** Which self-cleavage does the source give for ACCGGAUGUGCUUUCCGUUCUGAUGAGUCCGUGAGCACGAAACAG here?
**A.** Its self-cleavage is 0.308.

**Q.** For ACCGGAUGUGCUUUCCGAUCUGAUGAGUCCGAGAGGACGAAACAG, which self-cleavage is on record?
**A.** Its self-cleavage is 0.778.

**Q.** For ACCGGAUGUGCUUUCCGGUCUGAUGAGUCCGUGAGUGCGAAACAG, which self-cleavage is on record?
**A.** The self-cleavage was 0.479.

**Q.** Which self-cleavage does the source give for GCCGGAUGUGCUUUCCGGUCUGAUGAGUCCGUGCGGACGAAACAG here?
**A.** The self-cleavage was 1.1.

**Q.** For ACCGGAUGUGCUUUGCGGUCUGAUGAGUCCGUGAGGAAGAAACAG, which self-cleavage is on record?
**A.** The self-cleavage was 0.446.

**Q.** With ACCGGAUGUGCUUUCCCGUCUGAUGAGUCCGUGAGGACGAUACAG as the variant, how does the self-cleavage read?
**A.** The self-cleavage was 0.318.

**Q.** For ACCGGAUGUGCUUUCCGGUCUGAUGAAUCCGUGAGGACCAAACAG, which self-cleavage is on record?
**A.** Its self-cleavage is 0.285.

**Q.** Which self-cleavage does the source give for ACCGGAUGUCCUUUCCGGUCUGAUGAGUCCGUGAGGACGAAACAU here?
**A.** The self-cleavage was 0.812.

**Q.** For ACCGGCUGUGCUUUCCGGUCUGGUGAGUCCGUGAGGACGAAACAG, which self-cleavage is on record?
**A.** The self-cleavage was 0.306.

**Q.** With ACCGGAUGUGCUUUCCGGUCUGAUGAGUCCGUUAGGACGAAACAU as the variant, how does the self-cleavage read?
**A.** The self-cleavage was 0.912.

**Q.** For ACCGGAGGUGCUUUCCGGUCUGAUGAGUCCUUGAGGACGAAACAG, which self-cleavage is on record?
**A.** Its self-cleavage is 1.18.

**Q.** With ACCGGAUGUGCUUUCCGGUCUGAUAAGUCCGUGAGGCCGAAACAG as the variant, how does the self-cleavage read?
**A.** Its self-cleavage is 0.301.

**Q.** Which self-cleavage does the source give for ACCGUAUGUGCUUACCGGUCUGAUGAGUCCGUGAGGACGAAACAG here?
**A.** Its self-cleavage is 1.24.

**Q.** With ACCAGAUGUUCUUUCCGGUCUGAUGAGUCCGUGAGGACGAAACAG as the variant, how does the self-cleavage read?
**A.** The self-cleavage was 0.734.

**Q.** Which self-cleavage does the source give for ACCGGAUGUGCUUUCCGGUCUGAUGAGUCCGUGUGGACGUAACAG here?
**A.** The self-cleavage was 0.305.

**Q.** For ACCGGAUGUGCUUCCCGGUCUGAUGAGUCCGUGAGGACGAAACGG, which self-cleavage is on record?
**A.** Its self-cleavage is 1.24.

**Q.** With ACCGGAUGUGCUUACCGGUCUGAUGAGUCCGUGAGGUCGAAACAG as the variant, how does the self-cleavage read?
**A.** Its self-cleavage is 0.618.

**Q.** With ACCAGAUGUGCUUUCCGGUCUGAUGAGUCCGUGAGGACGGAACAG as the variant, how does the self-cleavage read?
**A.** Its self-cleavage is 0.379.

**Q.** For ACCGGAUGUGCCUUCCGGUCUGAUGAGUCCGUGAGGUCGAAACAG, which self-cleavage is on record?
**A.** The self-cleavage was 0.727.

**Q.** For ACCGGAUGUGCUUUCCGGUCUGGUGAGUCCGUGAGUACGAAACAG, which self-cleavage is on record?
**A.** Its self-cleavage is 0.403.

**Q.** For ACCGGAUGUGCUUUCCGGUCUGAUGAGUCCGUGAGGAAGGAACAG, which self-cleavage is on record?
**A.** Its self-cleavage is 0.369.

**Q.** For ACCAGAUGUGCUUUCUGGUCUGAUGAGUCCGUGAGGACGAAACAG, which self-cleavage is on record?
**A.** Its self-cleavage is 0.781.

**Q.** For ACCGGAUGUGCUAUCUGGUCUGAUGAGUCCGUGAGGACGAAACAG, which self-cleavage is on record?
**A.** The self-cleavage was 1.02.

**Q.** Which self-cleavage does the source give for ACCGGAUGUGCUUUCCGGUCUGAUGAGUCCGUGAGGCUGAAACAG here?
**A.** The self-cleavage was 0.546.

**Q.** With ACCGGAUGUGCUAUCCGGCCUGAUGAGUCCGUGAGGACGAAACAG as the variant, how does the self-cleavage read?
**A.** Its self-cleavage is 0.898.

**Q.** Which self-cleavage does the source give for AUCGGAUGUGCUUUCAGGUCUGAUGAGUCCGUGAGGACGAAACAG here?
**A.** Its self-cleavage is 0.367.

**Q.** With ACCGGAUGUGCUUUCCGGUCUGAUGAGUCCGUGAGGACGAUACGG as the variant, how does the self-cleavage read?
**A.** Its self-cleavage is 0.759.

**Q.** With ACCGGAUGGGCUUUCCGUUCUGAUGAGUCCGUGAGGACGAAACAG as the variant, how does the self-cleavage read?
**A.** The self-cleavage was 0.4.

**Q.** Which self-cleavage does the source give for ACCGGGUGUGCUUUCCGGUCUGAUGAGUCCGUGAGGACGAAACAA here?
**A.** Its self-cleavage is 0.556.

**Q.** Which self-cleavage does the source give for ACCGGUUGUGCUUACCGGUCUGAUGAGUCCGUGAGGACGAAACAG here?
**A.** The self-cleavage was 1.06.
